According to PMC4022466, “Spermatid Cyst Polarization in Drosophila Depends upon apkc and the CPEB Family Translational Regulator orb2”:

Molecular target: T1, Orb2-RRM (GST-Orb2 C-terminus) (UniProt Q9VSR3 447-704)
T1 sequence: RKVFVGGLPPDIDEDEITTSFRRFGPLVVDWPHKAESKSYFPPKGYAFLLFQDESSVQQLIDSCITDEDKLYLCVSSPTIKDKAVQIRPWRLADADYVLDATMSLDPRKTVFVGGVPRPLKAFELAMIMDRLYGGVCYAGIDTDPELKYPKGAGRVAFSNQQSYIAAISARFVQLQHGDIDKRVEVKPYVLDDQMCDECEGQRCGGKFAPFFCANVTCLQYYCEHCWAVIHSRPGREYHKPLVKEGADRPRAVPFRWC
Test: competition; 100-400 fold excess cold against RA-GS probe; 25 mM Tris pH 7.5, 10 mM EDTA (rest of buffer and temperature not in the material)
Conditions: protein: recombinant; tags: GST

B1: Comp-CPE (competitor A) (ssRNA)
RNA: ACUUUUGUUUUUAAUGCAUUCCAC
- binding result: binds
